Key:
recombinant CD3 proteins [1] = molecular target: T1, recombinant CD3 proteins (UniProt P07766 23-126); assay: Octet BLI, recombinant CD3; Full R^2 0.9966
T1 construct: elsewhere it uses human CD3 E/D and E/G heterodimers

recombinant CD3 proteins [2] = molecular target: T1, recombinant CD3 proteins; assay: Octet BLI, recombinant CD3; Full R^2 0.9991
recombinant CD3 proteins [3] = molecular target: T1, recombinant CD3 proteins; assay: Octet BLI, recombinant CD3; Full R^2 0.9823
recombinant CD3 proteins [4] = molecular target: T1, recombinant CD3 proteins; assay: Octet BLI, recombinant CD3; Full R^2 0.9554
recombinant CD3 proteins [5] = molecular target: T1, recombinant CD3 proteins; assay: Octet BLI, recombinant CD3; Full R^2 0.966

T1 sequence (P07766 23-126): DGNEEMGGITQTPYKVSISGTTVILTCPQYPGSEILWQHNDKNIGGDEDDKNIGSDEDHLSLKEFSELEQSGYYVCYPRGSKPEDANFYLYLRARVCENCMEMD

B1: CD3 × CD33-BspAb94 (bispecific antibody)
chain 1: NFMLTQPHSVSESPGKTVTISCTRSSGSIASNYVQWYQQRPGSSPTTVIYEDNQRPSGVPDRFSGSIDSSSNSASLTISGLKTEDEADYYCQSYDSSNRVFGCGTKLTVLGGGGSGGGGSGGGGSGGGGSEVQLVESGGGLVKPGGSLRLSCAASGFTFSSYTMNWVRQAPGKCLEWVSSITTSSSYIYYADSVKGRFTISRDNAKNSLYLQMNSLRAEDTAVYYCARVTFDAFDIWGQGTMVTVSSDKTHTCPPCPAPEFEGGPSVFLFPPKPKDTLMISRTPEVTCVVVDVSHEDPEVKFNWYVDGVEVHNAKTKPREEQYNSTYRVVSVLTVLHQDWLNGKEYKCKVSNKALPASIEKTISKAKGQPREPQVYTLPPCREEMTKNQVSLWCLVKGFYPSDIAVEWESNGQPENNYKTTPPVLDSDGSFFLYSKLTVDKSRWQQGNVFSCSVMHEALHNHYTQKSLSLSPGK
chain 2: EVQLVQSGAEVKKPGSSVKVSCKASGYTITDSNIHWVRQAPGQSLEWIGYIYPYNGGTDYNQKFKNRATLTVDNPTNTAYMELSSLRSEDTAFYYCVNGNPWLAYWGQGTLVTVSSASTKGPSVFPLAPSSKSTSGGTAALGCLVKDYFPEPVTVSWNSGALTSGVHTFPAVLQSSGLYSLSSVVTVPSSSLGTQTYICNVNHKPSNTKVDKRVEPKSCDKTHTCPPCPAPEFEGGPSVFLFPPKPKDTLMISRTPEVTCVVVDVSHEDPEVKFNWYVDGVEVHNAKTKPREEQYNSTYRVVSVLTVLHQDWLNGKEYKCKVSNKALPASIEKTISKAKGQPREPQVCTLPPSREEMTKNQVSLSCAVKGFYPSDIAVEWESNGQPENNYKTTPPVLDSDGSFFLVSKLTVDKSRWQQGNVFSCSVMHEALHNRFTQKSLSLSPGK
chain 3: DIQLTQSPSTLSASVGDRVTITCRASESLDNYGIRFLTWFQQKPGKAPKLLMYAASNQGSGVPSRFSGSGSGTEFTLTISSLQPDDFATYYCQQTKEVPWSFGQGTKVEVKRTVAAPSVFIFPPSDEQLKSGTASVVCLLNNFYPREAKVQWKVDNALQSGNSQESVTEQDSKDSTYSLSSTLTLSKADYEKHKVYACEVTHQGLSSPVTKSFNRGEC
Question: Which Kd (recombinant CD3 proteins [1]) does the source give for B1 here?
Answer: 645 nM

Question: And the koff (recombinant CD3 proteins [1])?
Answer: 0.0738 s⁻¹

Question: What about the kon (recombinant CD3 proteins [1]) of the same binder?
Answer: 115000 M⁻¹ s⁻¹

B2: CD3 × CD33-BspAb97 (bispecific antibody)
chain 1: SYELTQPPSVSVSPGQTARITCSGDALPKKYAYWYQQKSGQAPVLVIYEDSKRPSGIPERFSGSSSGTMATLTISGAQVEDEADYYCYSTDSSGNHWVFGCGTKLTVLGGGGSGGGGSGGGGSGGGGSEVQLVESGGGLVKPGGSLRLSCAASGFTFSNYYMNWVRQAPGKCLERVSSISSSSNYIYYADSVKGRFTISRDNAKNSLYLQMNSLRAEDTAVYYCARDRRELPLDYWGQGTVVTVSSDKTHTCPPCPAPEFEGGPSVFLFPPKPKDTLMISRTPEVTCVVVDVSHEDPEVKFNWYVDGVEVHNAKTKPREEQYNSTYRVVSVLTVLHQDWLNGKEYKCKVSNKALPASIEKTISKAKGQPREPQVYTLPPCREEMTKNQVSLWCLVKGFYPSDIAVEWESNGQPENNYKTTPPVLDSDGSFFLYSKLTVDKSRWQQGNVFSCSVMHEALHNHYTQKSLSLSPGK
chain 2: EVQLVQSGAEVKKPGSSVKVSCKASGYTITDSNIHWVRQAPGQSLEWIGYIYPYNGGTDYNQKFKNRATLTVDNPTNTAYMELSSLRSEDTAFYYCVNGNPWLAYWGQGTLVTVSSASTKGPSVFPLAPSSKSTSGGTAALGCLVKDYFPEPVTVSWNSGALTSGVHTFPAVLQSSGLYSLSSVVTVPSSSLGTQTYICNVNHKPSNTKVDKRVEPKSCDKTHTCPPCPAPEFEGGPSVFLFPPKPKDTLMISRTPEVTCVVVDVSHEDPEVKFNWYVDGVEVHNAKTKPREEQYNSTYRVVSVLTVLHQDWLNGKEYKCKVSNKALPASIEKTISKAKGQPREPQVCTLPPSREEMTKNQVSLSCAVKGFYPSDIAVEWESNGQPENNYKTTPPVLDSDGSFFLVSKLTVDKSRWQQGNVFSCSVMHEALHNRFTQKSLSLSPGK
chain 3: DIQLTQSPSTLSASVGDRVTITCRASESLDNYGIRFLTWFQQKPGKAPKLLMYAASNQGSGVPSRFSGSGSGTEFTLTISSLQPDDFATYYCQQTKEVPWSFGQGTKVEVKRTVAAPSVFIFPPSDEQLKSGTASVVCLLNNFYPREAKVQWKVDNALQSGNSQESVTEQDSKDSTYSLSSTLTLSKADYEKHKVYACEVTHQGLSSPVTKSFNRGEC
Question: Which results are given for B2?
Answer: Kd (recombinant CD3 proteins [2]): 276 nM; koff (recombinant CD3 proteins [2]): 0.0854 s⁻¹; kon (recombinant CD3 proteins [2]): 309000 M⁻¹ s⁻¹

B3: CD3 × CD33-BspAb96 (bispecific antibody)
chain 1: SYELTQPPSVSVSPGQTARITCSGDALPKKYAYWYQQKSGQAPVLVIYEDSKRPSGIPERFSGSSSGTMATLTISGAQVEDEADYYCYSTDSSGNHSWVFGCGTKLTVLGGGGSGGGGSGGGGSGGGGSEVQLVESGGGLVKPGGSLRLSCAASGFTFSSYSMNWVRQAPGKCLEWVSSVNSRGSYIYYADSVKGRFTISRDNAKDSLYLQMNSLRADDTAVYYCARDRRELLLDYWGQGTLVTVSSDKTHTCPPCPAPEFEGGPSVFLFPPKPKDTLMISRTPEVTCVVVDVSHEDPEVKFNWYVDGVEVHNAKTKPREEQYNSTYRVVSVLTVLHQDWLNGKEYKCKVSNKALPASIEKTISKAKGQPREPQVYTLPPCREEMTKNQVSLWCLVKGFYPSDIAVEWESNGQPENNYKTTPPVLDSDGSFFLYSKLTVDKSRWQQGNVFSCSVMHEALHNHYTQKSLSLSPGK
chain 2: EVQLVQSGAEVKKPGSSVKVSCKASGYTITDSNIHWVRQAPGQSLEWIGYIYPYNGGTDYNQKFKNRATLTVDNPTNTAYMELSSLRSEDTAFYYCVNGNPWLAYWGQGTLVTVSSASTKGPSVFPLAPSSKSTSGGTAALGCLVKDYFPEPVTVSWNSGALTSGVHTFPAVLQSSGLYSLSSVVTVPSSSLGTQTYICNVNHKPSNTKVDKRVEPKSCDKTHTCPPCPAPEFEGGPSVFLFPPKPKDTLMISRTPEVTCVVVDVSHEDPEVKFNWYVDGVEVHNAKTKPREEQYNSTYRVVSVLTVLHQDWLNGKEYKCKVSNKALPASIEKTISKAKGQPREPQVCTLPPSREEMTKNQVSLSCAVKGFYPSDIAVEWESNGQPENNYKTTPPVLDSDGSFFLVSKLTVDKSRWQQGNVFSCSVMHEALHNRFTQKSLSLSPGK
chain 3: DIQLTQSPSTLSASVGDRVTITCRASESLDNYGIRFLTWFQQKPGKAPKLLMYAASNQGSGVPSRFSGSGSGTEFTLTISSLQPDDFATYYCQQTKEVPWSFGQGTKVEVKRTVAAPSVFIFPPSDEQLKSGTASVVCLLNNFYPREAKVQWKVDNALQSGNSQESVTEQDSKDSTYSLSSTLTLSKADYEKHKVYACEVTHQGLSSPVTKSFNRGEC
Question: With B3 as the binder, how does the Kd (recombinant CD3 proteins [3]) read?
Answer: 573 nM

Question: And the koff (recombinant CD3 proteins [3])?
Answer: 0.21 s⁻¹

Question: What about the kon (recombinant CD3 proteins [3]) of the same binder?
Answer: 366000 M⁻¹ s⁻¹

B4: CD3 × CD33-BspAb98 (bispecific antibody)
chain 1: NFMLTQPHSVSESPGKTVTISCTRSSGSIASNYVQWYQQRPGSSPTTVIYEDNQRPSGVPDRFSGSIDSSSNSASLTISGLKTEDEADYYCQSYDSSNRVFGCGTKLTVLGGGGSGGGGSGGGGSGGGGSEVHLVESGGGLVKPGGSLRLSCAASGFTFSRYSMNWVRQAPGKCLEWVSSISRSSSYIYYADSVKGRFTISRDNAKNSLYLQMNSLRAEDTAVYYCAREPRTLGMDYWGQGILVTVSSDKTHTCPPCPAPEFEGGPSVFLFPPKPKDTLMISRTPEVTCVVVDVSHEDPEVKFNWYVDGVEVHNAKTKPREEQYNSTYRVVSVLTVLHQDWLNGKEYKCKVSNKALPASIEKTISKAKGQPREPQVYTLPPCREEMTKNQVSLWCLVKGFYPSDIAVEWESNGQPENNYKTTPPVLDSDGSFFLYSKLTVDKSRWQQGNVFSCSVMHEALHNHYTQKSLSLSPGK
chain 2: EVQLVQSGAEVKKPGSSVKVSCKASGYTITDSNIHWVRQAPGQSLEWIGYIYPYNGGTDYNQKFKNRATLTVDNPTNTAYMELSSLRSEDTAFYYCVNGNPWLAYWGQGTLVTVSSASTKGPSVFPLAPSSKSTSGGTAALGCLVKDYFPEPVTVSWNSGALTSGVHTFPAVLQSSGLYSLSSVVTVPSSSLGTQTYICNVNHKPSNTKVDKRVEPKSCDKTHTCPPCPAPEFEGGPSVFLFPPKPKDTLMISRTPEVTCVVVDVSHEDPEVKFNWYVDGVEVHNAKTKPREEQYNSTYRVVSVLTVLHQDWLNGKEYKCKVSNKALPASIEKTISKAKGQPREPQVCTLPPSREEMTKNQVSLSCAVKGFYPSDIAVEWESNGQPENNYKTTPPVLDSDGSFFLVSKLTVDKSRWQQGNVFSCSVMHEALHNRFTQKSLSLSPGK
chain 3: DIQLTQSPSTLSASVGDRVTITCRASESLDNYGIRFLTWFQQKPGKAPKLLMYAASNQGSGVPSRFSGSGSGTEFTLTISSLQPDDFATYYCQQTKEVPWSFGQGTKVEVKRTVAAPSVFIFPPSDEQLKSGTASVVCLLNNFYPREAKVQWKVDNALQSGNSQESVTEQDSKDSTYSLSSTLTLSKADYEKHKVYACEVTHQGLSSPVTKSFNRGEC
Question: For B4, which Kd (recombinant CD3 proteins [4]) is on record?
Answer: 5.1 nM

Question: What about the koff (recombinant CD3 proteins [4]) of the same binder?
Answer: 0.00333 s⁻¹

Question: What about the kon (recombinant CD3 proteins [4]) of the same binder?
Answer: 653000 M⁻¹ s⁻¹

B5: CD3 × CD33-BspAb95 (bispecific antibody)
chain 1: NFMLTQPHSVSESPGKTVTISCTRSSGSIASNYVQWYQQRPGSSPTTVIYEDNQRSSGVPDRFSGSIDSSSNSASLTISGLKTEDEADYYCQSYDRSNRVFGCGTKLTVLGGGGSGGGGSGGGGSGGGGSEVQLVESGGGLVKPGGSLRLSCSASGFTFSTYTMNWVRQAPGKCLEWVSSISKSSSYIYYTDSVKGRFTISRDNAKNSLYLQMNSLRAEDTAVYYCARERRTLAFDIWGQGTMVTVSSDKTHTCPPCPAPEFEGGPSVFLFPPKPKDTLMISRTPEVTCVVVDVSHEDPEVKFNWYVDGVEVHNAKTKPREEQYNSTYRVVSVLTVLHQDWLNGKEYKCKVSNKALPASIEKTISKAKGQPREPQVYTLPPCREEMTKNQVSLWCLVKGFYPSDIAVEWESNGQPENNYKTTPPVLDSDGSFFLYSKLTVDKSRWQQGNVFSCSVMHEALHNHYTQKSLSLSPGK
chain 2: EVQLVQSGAEVKKPGSSVKVSCKASGYTITDSNIHWVRQAPGQSLEWIGYIYPYNGGTDYNQKFKNRATLTVDNPTNTAYMELSSLRSEDTAFYYCVNGNPWLAYWGQGTLVTVSSASTKGPSVFPLAPSSKSTSGGTAALGCLVKDYFPEPVTVSWNSGALTSGVHTFPAVLQSSGLYSLSSVVTVPSSSLGTQTYICNVNHKPSNTKVDKRVEPKSCDKTHTCPPCPAPEFEGGPSVFLFPPKPKDTLMISRTPEVTCVVVDVSHEDPEVKFNWYVDGVEVHNAKTKPREEQYNSTYRVVSVLTVLHQDWLNGKEYKCKVSNKALPASIEKTISKAKGQPREPQVCTLPPSREEMTKNQVSLSCAVKGFYPSDIAVEWESNGQPENNYKTTPPVLDSDGSFFLVSKLTVDKSRWQQGNVFSCSVMHEALHNRFTQKSLSLSPGK
chain 3: DIQLTQSPSTLSASVGDRVTITCRASESLDNYGIRFLTWFQQKPGKAPKLLMYAASNQGSGVPSRFSGSGSGTEFTLTISSLQPDDFATYYCQQTKEVPWSFGQGTKVEVKRTVAAPSVFIFPPSDEQLKSGTASVVCLLNNFYPREAKVQWKVDNALQSGNSQESVTEQDSKDSTYSLSSTLTLSKADYEKHKVYACEVTHQGLSSPVTKSFNRGEC
Question: Which Kd (recombinant CD3 proteins [5]) does the source give for B5 here?
Answer: 8.44 nM

Question: What about the koff (recombinant CD3 proteins [5]) of the same binder?
Answer: 0.00457 s⁻¹

Question: What about the kon (recombinant CD3 proteins [5]) of the same binder?
Answer: 542000 M⁻¹ s⁻¹
